# From patent publication US11590206B2, “Liquid pharmaceutical composition” (SANOFI, priority 2017, dated 2023)
# How the values were obtained:
# Format in all cases: physicochemical
# [1] = FTIR spectroscopy: ratio of alpha and beta sheets; settings: 5.0 mg/ml and 75 mg/mL named; phosphate buffer, m-cresol, sodium chloride (Table 2)
# Procedure: The physical and chemical stability of the stored formulations is determined with the help of the following tests: • Dynamic light scattering (DLS) method was applied to access the subvisible particle size distribution • Fourier transform infrared spectroscopy (FTIR) to analyze the ratio of alpha and beta sheets • Chemical stability (purity and impurities), determined by HPLC • Proteins of high molecular weight, determined by HPSEC
# FTIR spectroscopy is a suitable method for the determination of a protein's secondary structure. The vibration giving the most pronounced signal in FTIR spectroscopy is the C═O stretching vibration of amide groups resulting in a signal in the so-called amide I-region (1700-1600 cm^−1). This vibration is sensitive to the hydrogen-bonding pattern, dipole-dipole interactions and the geometry of the polypeptide backbone. […]
# As a consequence, the individual component bands that represent the different structural elements, such as α-helices, β-sheets, turns and irregular structures are often not resolved and difficult to identify in the broad amide I-band contours of the experimentally obtained spectra. […] The absolute values for protein conformation determined by the chemometric method can therefore be systematically biased, however, the repeatability of results for samples of the same protein is usually in the range of +/−2%. […]
# [2] = Rheology with rotation and capillary rheometer; settings: Table 2 composition, 5.0 mg/ml; shear rates>1/s
# Procedure: To this end, a composition as described above in Table 2 containing 5.0 mg/ml SEQ ID NO.: 2 was added to a rheometer and subjected to measurement. The experiments were performed with a MCR rotation rheometer (Anton Paar) and with capillary rheometer Kinexus (Malvern). […] High shear rates have no influence on the shear viscosity of the formulation (see also FIG. 7).
# [3] = Small angle X-ray scattering (SAXS): oligomer size and shape; settings: in the formulations
# Procedure: SAXS measurements were performed at a synchrotron light source (DESY Hamburg). The scattering data from all samples were collected loading 20 microliters of solutions into the capillary and flowing the whole volume across the X-ray beam. Per each sample 20 frames of 0.045 s exposure were collected and, after a statistical consistency check, averaged. The corresponding signals collected for the placebo was then subtracted. Each sample measurement was repeated at least twice to ensure reproducibility.
# [4] = ThT assay: fibrillation tendency under thermal and mechanical stress
# Procedure: Investigations were carried out to determine fibrillation tendencies under stress conditions using a ThT assay. […] Amyloid-like structures show a beta-sheet rich structure. Fibrillation of peptide solutions is induced by thermic and mechanical stress. Samples are stressed under defined conditions using Fluoroskan Ascent FL.
# For the tests in Fluoroskan Ascent FL 200 μL sample were placed into 96 well microtiterplate PS, flat bottom, Greiner Fluotrac No. 655076. Plates were sealed with Scotch Tape (Quiagen). […] The kinetic was monitored by measuring fluorescence intensity every 20 minutes.
# Solutions were transferred in 2 mL Eppendorf vials and 20 μL of a 10.1 mM ThT solution in H2O were added to 2 mL of peptide solution to receive a final concentration of 100 μM ThT. For each sample eight replicates were tested.
substance,measurement,setting,value
"H-dSer-Q-G-T-F-T-S-D-L-S-K-Q-K(γE-x53)-ESKAAQDFIEWLKAGGPSSGAPPPS-NH2 (HXQGTFTSDLSKQKESKAAQDFIEWLKAGGPSSGAPPPS; D-Ser1, K14 gammaE-palmitoyl lipidation, C-terminal amide; Exendin-4 analogue; MOD_RES (2)..(2) Xaa is a D-Ser; MOD_RES (14)..(14) Lys is functionalized at the amino side chain group as Lys((S)-4-carboxy-4-hexadecanoylamino-butyryl); MOD_RES (39)..(39) Ser is modified with an NH2 group) [SEQ ID NO.: 2, γE-x53 is (S)-4-Carboxy-4-hexadecanoylamino-butyryl-]",measured value of alpha sheets (FTIR),[1],48.9%
same,measured value of beta sheets (FTIR),[1],13.1%
same,"fluid property (shear stress, viscosity vs shear rate)",[2],Newtonian fluid
same,Oligomeric state (best fit of SAXS curve),[3],all hexameric
same,Fibrillation (ThT fluorescence),"[4]; 1 mg/ml in PBS, 100 h incubation at +37° C. and 500 rpm",negligible fibrillation
same,Fibrillation (ThT fluorescence),"[4]; 5 mg/mL in phosphate buffer, NaCl and m-cresol, pH≈6.6, 100 hours at 37° C. shaking (500 rpm)",no fibrillation was observed
